# Molecular target: HLA-DRB1*04 molecules (human)
# Experiment: cell-based or functional assay
row,IFN-γ production (ELISA) by CD4-positive T cells against peptide-pulsed PBMCs expressing HLA-DRB1*04 [pg/mL],Binder
1,≥ 1000,TAGAHRLWSHRSYKARLPLR [polypeptide consisting of the amino acid sequence represented by SEQ ID NO: 39]
2,≥ 1000,WGVFYYFVSALGITAGAH [polypeptide consisting of the amino acid sequence represented by SEQ ID NO: 38]
3,≥ 1000,HVGWLLVRKHPAVKE [polypeptide consisting of the amino acid sequence represented by SEQ ID NO: 42]
4,≥ 1000,NATWLVNSAAHLFGYR [polypeptide consisting of the amino acid sequence represented by SEQ ID NO: 44]
5,≥ 1000,AEKLVMFQRRYYKPGLL [polypeptide consisting of the amino acid sequence represented by SEQ ID NO: 43]

# The remaining lines, values behind:
row,Binder,IFN-γ production (ELISA) by CD4-positive T cells against peptide-pulsed PBMCs expressing HLA-DRB1*04 [pg/mL]
1,ASEYRWHINFTT [polypeptide consisting of the amino acid sequence represented by SEQ ID NO: 45],≥ 1000
2,HRSYKARLPLRLFLI [polypeptide consisting of the amino acid sequence represented by SEQ ID NO: 40],≥ 1000
3,VEYVWRNIILMSLLHLGALYGITL [polypeptide consisting of the amino acid sequence represented by SEQ ID NO: 37],≥ 1000
4,PLRLFLIIANTMAFQN [polypeptide consisting of the amino acid sequence represented by SEQ ID NO: 41],≥ 1000

# Source: US20190076505A1 (TORAY INDUSTRIES, published 2019)
